PMC4452343, “Monitoring β-arrestin recruitment via β-lactamase enzyme fragment complementation: purification of peptide E as a low-affinity ligand for mammalian bombesin receptors” (PLoS ONE, 2015)

Tests used:
[1] = molecular target: gastrin-releasing peptide receptor (human, UniProt P30550 1-384); assay: cell-based or functional assay
neuromedin B receptor = neuromedin B receptor (human, UniProt P28336 1-390); assay: cell-based or functional assay
[2] = molecular target: T1, human bombesin receptor subtype 3 (human, UniProt P32247 1-399); assay: cell-based or functional assay
T1 sequence (looked up): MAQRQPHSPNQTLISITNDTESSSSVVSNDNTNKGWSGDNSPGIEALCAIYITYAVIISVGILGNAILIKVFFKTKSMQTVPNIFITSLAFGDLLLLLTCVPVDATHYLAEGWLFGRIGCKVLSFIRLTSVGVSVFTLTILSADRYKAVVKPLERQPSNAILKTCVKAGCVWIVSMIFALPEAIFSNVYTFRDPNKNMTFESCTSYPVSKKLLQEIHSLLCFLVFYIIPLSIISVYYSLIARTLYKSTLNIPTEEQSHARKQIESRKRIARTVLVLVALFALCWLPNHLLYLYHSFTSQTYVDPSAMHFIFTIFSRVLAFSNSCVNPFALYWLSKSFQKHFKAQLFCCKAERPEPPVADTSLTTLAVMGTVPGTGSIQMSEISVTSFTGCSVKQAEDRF

[3] = molecular target: T1, human bombesin receptor subtype 3; assay: radioligand binding; competition; 5 μg membrane fraction of CHO-hBRS3 cells with 0.1 nM radioligand and various concentrations of competitor, 2 h at room temperature, 50mM Tris-HCl (pH7.5), 5mM MgCl2; bound ligand separated on a GF/C filter; settings: one partner purified

Sequence of gastrin-releasing peptide receptor (P30550 whole entry): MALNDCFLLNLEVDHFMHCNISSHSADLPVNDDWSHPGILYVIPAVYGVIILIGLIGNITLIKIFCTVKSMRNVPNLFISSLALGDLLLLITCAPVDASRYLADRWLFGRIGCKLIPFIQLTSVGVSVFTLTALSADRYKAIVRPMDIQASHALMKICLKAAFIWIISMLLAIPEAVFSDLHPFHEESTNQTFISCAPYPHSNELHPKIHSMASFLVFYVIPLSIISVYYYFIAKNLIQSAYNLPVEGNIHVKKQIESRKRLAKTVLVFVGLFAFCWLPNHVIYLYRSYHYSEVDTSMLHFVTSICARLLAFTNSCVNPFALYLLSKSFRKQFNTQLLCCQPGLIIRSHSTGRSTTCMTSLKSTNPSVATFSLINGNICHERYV
Sequence of neuromedin B receptor (P28336 whole entry): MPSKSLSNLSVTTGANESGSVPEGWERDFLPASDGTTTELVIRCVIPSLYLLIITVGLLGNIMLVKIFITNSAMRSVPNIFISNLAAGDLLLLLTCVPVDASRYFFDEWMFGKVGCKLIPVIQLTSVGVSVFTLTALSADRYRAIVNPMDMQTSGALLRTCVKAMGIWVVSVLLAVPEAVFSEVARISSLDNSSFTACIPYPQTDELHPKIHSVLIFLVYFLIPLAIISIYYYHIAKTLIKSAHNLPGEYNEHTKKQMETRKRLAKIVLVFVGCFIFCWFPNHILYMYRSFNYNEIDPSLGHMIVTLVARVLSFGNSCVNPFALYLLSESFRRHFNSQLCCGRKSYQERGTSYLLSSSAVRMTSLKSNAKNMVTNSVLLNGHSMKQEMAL

B1: peptide E (peptide)
chain: YGGFMRRVGRPEWWMDYQKRYGGFL
notes: peptide E, a partially processed product of the opioid peptide precursor proenkephalin A; 25 residues; also called P2; synthetic peptide E; source: synthetic peptide (chemically synthesized)
B1 was tested, and the “EC50 of NFAT-luciferase reporter activation in CHO cells expressing hGRPR” value [1] was 3500 nM, the “EC50 of NFAT-luciferase reporter activation in CHO cells expressing hNMBR” value (neuromedin B receptor) was 1100 nM and the “EC50 of NFAT-luciferase reporter activation in CHO cells expressing hBRS3” value [2] was 500 nM. It also gave an IC50 [3] of 361 nM.
